Measured values published in paper PMC12217528, “Structural basis of topoisomerase targeting by delafloxacin” (Nature Communications, 2025).

B1: ParE30 metal binding TOPRIM domain of S. pneumoniae topo IV (domain or fragment, Streptococcus pneumoniae)
chain: MKNKKDKGLLSGKLTPAQSKNPAKNELYLVEGDSAGGSAKQGRDRKFQAILPLRGKVINTAKAKMADILKNEEINTMIYTIGAGVGADFSIEDANYDKIIIMTDADTDGAHIQTLLLTFFYRYMRPLVEAGHVYIALPPLYKMSKGKGKKEEVAYAWTDGELEELRKQFGKGATLQRYKGLGEMNADQLWETTMNPETRTLIRVTIEDLARAERRVNVLMGDKVEPRRKWIEDNVKFTLEEATVF
notes: residues 2-245 of the printed fusion; In the crystals this domain stood on one chain with ParC55, joined through one extra histidine, as the fusion protein m1; also called ParE TOPRIM domain; ParE domains; source: E. coli BL21(λDE3) pLysS, purified to >95% homogeneity (as part of the ParE30-ParC55 fusion protein)
B2: ParC55 breakage-reunion domain of S. pneumoniae topo IV (domain or fragment, Streptococcus pneumoniae)
chain: MSNIQNMSLEDIMGERFGRYSKYIIQDRALPDIRDGLKPVQRRILYSMNKDSNTFDKSYRKSAKSVGNIMGNFHPHGDSSIYDAMVRMSQNWKNREILVEMHGNNGSMDGDPPAAMRYTEARLSEIAGYLLQDIEKKTVPFAWNFDDTEKEPTVLPAAFPNLLVNGSTGISAGYATDIPPHNLAEVIDAAVYMIDHPTAKIDKLMEFLPGPDFPTGAIIQGRDEIKKAYETGKGRVVVRSKTEIEKLKGGKEQIVITEIPYEINKANLVKKIDDVRVNNKVAGIAEVRDESDRDGLRIAIELKKDANTELVLNYLFKYTDLQINYNFNMVAIDNFTPRQVGIVPILSSYIAHRREVILARSRFDKEKAEKRLHIVEGLIRVISILDEVIALIRASENKADAKENLKVSYDFTEEQAEAIVTLQLYRLTNTDVVVLQEEEAELREKIAMLAAIIGDERTMYNLMKKELREVKKKFATPRLSSLEDTAKALE
modifications: Y118 covalently linked to the 5′-phosphate of the cleaved DNA (phosphotyrosyl linkage)
notes: ParC55, the breakage-reunion domain of topoisomerase IV subunit ParC, S. pneumoniae; residues 247-734 of the printed fusion; In the crystals this domain stood on one chain with ParE30, joined through one extra histidine, as the fusion protein m1; also called ParC domains; ParC dimer; source: E. coli BL21(λDE3) pLysS, purified to >95% homogeneity (as part of the ParE30-ParC55 fusion protein)

Assays:
[1] = target: B2; assay: crystal structure; ParE30-ParC55 fusion protein (4.5 mg/ml) mixed with 18-mer V-site or E-site duplex DNA at 1:1.2 molar ratio, 2 mM delafloxacin, 10 mM MgCl2; sitting-drop vapour diffusion, 50 mM sodium cacodylate, 62.5 mM KCl, 7.5 mM MgCl2, 2.5% Tacsimate, 5.5–7% isopropanol, pH 6.5, 301 K; V18 with PEGylated graphene nucleant 2.0 Å, V18 and E18 without 2.4 Å; conditions: both partners purified
[2] = target: the molecule itself; assay: as above

Binder	binding result [1]	binding result [2]
B1	binds	–
B2	–	binds
